What was measured:
Assay in all cases: holdup assay
Set-up in all cases: key: below the threshold = too weak to quantify, mostly under pKd 3.1 to 4
ARHGEF12, Q9NZN5-2 = biological target: ARHGEF12, Q9NZN5-2
DFNB31_2, Q9P202 = biological target: T1, DFNB31_2, Q9P202
T1 sequence (Q9P202 274-371, limits assumed, looked up): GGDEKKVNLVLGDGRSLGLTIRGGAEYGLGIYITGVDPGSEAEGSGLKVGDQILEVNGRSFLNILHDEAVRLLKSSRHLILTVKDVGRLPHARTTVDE

DLG4_1, P78352 = biological target: DLG4_1, P78352
DLG4_3, P78352 = biological target: DLG4_3, P78352
FRMPD1, Q5SYB0 = biological target: T2, FRMPD1, Q5SYB0
T2 sequence (Q5SYB0 52-145, limits assumed, looked up): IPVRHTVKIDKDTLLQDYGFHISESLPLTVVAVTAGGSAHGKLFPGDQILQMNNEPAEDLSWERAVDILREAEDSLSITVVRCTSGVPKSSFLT

GIPC2, Q8TF65 = biological target: GIPC2, Q8TF65
GRID2IP_1, A4D2P6 = biological target: GRID2IP_1, A4D2P6
GRID2IP_2, A4D2P6 = biological target: GRID2IP_2, A4D2P6
GRIP1_7, Q9Y3R0 = biological target: T3, GRIP1_7, Q9Y3R0
T3 sequence (Q9Y3R0 999-1096, limits assumed, looked up): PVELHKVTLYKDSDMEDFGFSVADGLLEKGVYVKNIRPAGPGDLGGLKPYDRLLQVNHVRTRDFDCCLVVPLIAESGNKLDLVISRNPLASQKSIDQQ

GRIP2_5, Q9C0E4 = biological target: GRIP2_5, Q9C0E4
GRIP2_6, Q9C0E4 = biological target: GRIP2_6, Q9C0E4
GRIP2_7, Q9C0E4 = biological target: GRIP2_7, Q9C0E4
HTRA3, P83110 = biological target: T4, HTRA3, P83110
T4 sequence (P83110 354-453, limits assumed, looked up): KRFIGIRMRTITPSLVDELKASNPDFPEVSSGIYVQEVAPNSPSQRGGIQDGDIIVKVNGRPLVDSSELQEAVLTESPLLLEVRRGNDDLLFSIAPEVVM

LDB3, O75112 = biological target: LDB3, O75112
LNX1_1, Q8TBB1 = biological target: LNX1_1, Q8TBB1
MAGI2_2, Q86UL8 = biological target: MAGI2_2, Q86UL8
MAST2, Q6P0Q8 = biological target: MAST2, Q6P0Q8
MPP2, Q14168 = biological target: T5, MPP2, Q14168
T5 sequence (Q14168 180-250, limits assumed, looked up): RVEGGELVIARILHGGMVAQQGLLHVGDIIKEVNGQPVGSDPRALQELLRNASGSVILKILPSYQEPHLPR

MPP6, Q9NZW5 = biological target: T6, MPP6, Q9NZW5
T6 sequence (Q9NZW5 125-219, limits assumed, looked up): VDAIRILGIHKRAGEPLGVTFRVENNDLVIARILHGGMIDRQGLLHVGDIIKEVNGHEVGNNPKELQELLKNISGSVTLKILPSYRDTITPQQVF

PDZRN3_1, Q9UPQ7 = biological target: T7, PDZRN3_1, Q9UPQ7
T7 sequence (Q9UPQ7 244-349, limits assumed, looked up): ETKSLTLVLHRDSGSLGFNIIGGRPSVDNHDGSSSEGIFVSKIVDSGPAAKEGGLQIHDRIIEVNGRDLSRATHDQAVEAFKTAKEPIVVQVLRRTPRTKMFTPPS

SCRIB_1, Q14160 = biological target: SCRIB_1, Q14160
SCRIB_2, Q14160 = biological target: SCRIB_2, Q14160
SCRIB_3, Q14160 = biological target: SCRIB_3, Q14160
SNTA1, Q13424 = biological target: T8, SNTA1, Q13424
T8 sequence (Q13424 82-180, limits assumed, looked up): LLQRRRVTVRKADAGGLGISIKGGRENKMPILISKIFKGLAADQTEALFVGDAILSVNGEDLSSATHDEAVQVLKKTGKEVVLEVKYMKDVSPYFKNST

SNTB1, Q13884 = biological target: T9, SNTB1, Q13884
T9 sequence (Q13884 107-205, limits assumed, looked up): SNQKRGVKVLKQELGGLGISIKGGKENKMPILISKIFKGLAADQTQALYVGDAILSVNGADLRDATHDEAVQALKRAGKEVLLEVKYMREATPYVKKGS

TJP3_3, O95049 = biological target: T10, TJP3_3, O95049
T10 sequence (O95049 375-456, limits assumed, looked up): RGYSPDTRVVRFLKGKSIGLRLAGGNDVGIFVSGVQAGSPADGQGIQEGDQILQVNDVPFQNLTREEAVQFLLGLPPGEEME

TX1BP3, O14907 = biological target: T11, TX1BP3, O14907
T11 sequence (O14907 10-122, limits assumed, looked up): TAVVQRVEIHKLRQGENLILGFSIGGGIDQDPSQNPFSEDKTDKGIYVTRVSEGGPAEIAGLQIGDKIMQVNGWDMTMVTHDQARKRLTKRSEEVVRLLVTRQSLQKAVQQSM

[1] = plain residues with an end cap or a label only (N-terminal biotin on a linker: ahx)
[2] = plain residues with an end cap or a label only (N-terminal biotin on a linker: ttds)

Sequence of SCRIB_1, Q14160 (Q14160 718-814): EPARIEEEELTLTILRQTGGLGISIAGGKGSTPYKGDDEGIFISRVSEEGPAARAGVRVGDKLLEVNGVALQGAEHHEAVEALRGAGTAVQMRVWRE
Sequence of MAST2, Q6P0Q8 (Q6P0Q8 1099-1202): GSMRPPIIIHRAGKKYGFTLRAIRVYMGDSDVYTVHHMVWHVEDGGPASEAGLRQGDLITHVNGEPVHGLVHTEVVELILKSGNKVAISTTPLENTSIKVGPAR
Sequence of GIPC2, Q8TF65 (Q8TF65 112-203): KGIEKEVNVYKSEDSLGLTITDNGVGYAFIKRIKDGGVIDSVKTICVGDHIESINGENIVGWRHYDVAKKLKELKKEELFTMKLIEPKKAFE
Sequence of MAGI2_2, Q86UL8 (Q86UL8 410-522): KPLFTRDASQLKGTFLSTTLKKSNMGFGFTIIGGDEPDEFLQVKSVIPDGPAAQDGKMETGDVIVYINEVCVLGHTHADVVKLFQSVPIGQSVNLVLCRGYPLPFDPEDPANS
Sequence of GRIP2_7, Q9C0E4 (Q9C0E4 934-1023): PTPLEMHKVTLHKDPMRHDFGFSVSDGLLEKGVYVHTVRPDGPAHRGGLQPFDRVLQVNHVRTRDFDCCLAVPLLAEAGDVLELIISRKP
Sequence of GRIP2_5, Q9C0E4 (Q9C0E4 544-642): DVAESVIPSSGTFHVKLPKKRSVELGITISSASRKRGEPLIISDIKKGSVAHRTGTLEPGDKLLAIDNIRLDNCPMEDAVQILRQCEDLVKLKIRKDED
Sequence of SCRIB_3, Q14160 (Q14160 999-1103): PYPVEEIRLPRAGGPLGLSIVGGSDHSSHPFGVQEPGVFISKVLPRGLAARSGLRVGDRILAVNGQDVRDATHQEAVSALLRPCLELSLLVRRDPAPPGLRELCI
Sequence of DLG4_3, P78352 (P78352 306-403): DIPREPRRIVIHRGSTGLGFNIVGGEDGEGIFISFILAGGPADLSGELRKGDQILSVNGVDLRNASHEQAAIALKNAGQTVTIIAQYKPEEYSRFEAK
Sequence of GRID2IP_1, A4D2P6 (A4D2P6 1-87): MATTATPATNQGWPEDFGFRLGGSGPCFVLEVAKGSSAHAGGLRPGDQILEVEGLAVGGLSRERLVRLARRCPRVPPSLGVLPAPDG
Sequence of LDB3, O75112 (O75112 1-94): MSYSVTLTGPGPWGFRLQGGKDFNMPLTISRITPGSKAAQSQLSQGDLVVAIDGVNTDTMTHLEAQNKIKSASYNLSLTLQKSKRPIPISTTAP
Sequence of LNX1_1, Q8TBB1 (Q8TBB1 261-371): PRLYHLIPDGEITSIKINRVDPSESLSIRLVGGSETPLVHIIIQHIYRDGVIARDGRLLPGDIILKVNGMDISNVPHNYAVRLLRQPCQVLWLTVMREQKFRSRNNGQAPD
Sequence of GRIP2_6, Q9C0E4 (Q9C0E4 648-740): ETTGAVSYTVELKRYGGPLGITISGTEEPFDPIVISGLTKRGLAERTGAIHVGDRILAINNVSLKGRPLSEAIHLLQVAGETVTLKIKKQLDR
Sequence of SCRIB_2, Q14160 (Q14160 857-960): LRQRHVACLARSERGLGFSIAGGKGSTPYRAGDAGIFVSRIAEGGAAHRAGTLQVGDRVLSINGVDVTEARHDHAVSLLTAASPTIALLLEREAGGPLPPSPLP
Sequence of DLG4_1, P78352 (P78352 62-152): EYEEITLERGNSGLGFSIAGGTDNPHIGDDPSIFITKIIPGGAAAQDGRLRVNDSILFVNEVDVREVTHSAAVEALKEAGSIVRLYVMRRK
Sequence of ARHGEF12, Q9NZN5-2 (Q9NZN5 other isoform, or with tags, fused parts or gaps): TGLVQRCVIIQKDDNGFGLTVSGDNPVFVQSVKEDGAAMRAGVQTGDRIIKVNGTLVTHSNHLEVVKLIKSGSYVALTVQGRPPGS
Sequence of GRID2IP_2, A4D2P6 (A4D2P6 272-370): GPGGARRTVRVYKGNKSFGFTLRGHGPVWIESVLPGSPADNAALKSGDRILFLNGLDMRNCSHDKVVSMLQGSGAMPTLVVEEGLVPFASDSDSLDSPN

ADENEQVSAV [RAPGEF6, Q8TEU7]
pKd (ARHGEF12, Q9NZN5-2; [1]): 3.83
pKd (DFNB31_2, Q9P202; [1]): below the threshold
pKd (DLG4_1, P78352; [1]): 3.6
pKd (DLG4_3, P78352; [1]): below the threshold
pKd (FRMPD1, Q5SYB0; [1]): below the threshold
pKd (GIPC2, Q8TF65; [1]): below the threshold
pKd (GRID2IP_1, A4D2P6; [1]): below the threshold
pKd (GRID2IP_2, A4D2P6; [1]): 4.19
pKd (GRIP1_7, Q9Y3R0; [1]): below the threshold
pKd (GRIP2_5, Q9C0E4; [1]): below the threshold
pKd (GRIP2_6, Q9C0E4; [1]): below the threshold
pKd (GRIP2_7, Q9C0E4; [1]): below the threshold
pKd (HTRA3, P83110; [1]): below the threshold
pKd (LDB3, O75112; [1]): below the threshold
pKd (LNX1_1, Q8TBB1; [1]): below the threshold
pKd (MAGI2_2, Q86UL8; [1]): below the threshold
pKd (MAST2, Q6P0Q8; [1]): 4.79
pKd (MPP2, Q14168; [1]): below the threshold
pKd (MPP6, Q9NZW5; [1]): below the threshold
pKd (PDZRN3_1, Q9UPQ7; [1]): 3.79
pKd (SCRIB_1, Q14160; [1]): 3.65
pKd (SCRIB_2, Q14160; [1]): below the threshold
pKd (SCRIB_3, Q14160; [1]): below the threshold
pKd (SNTA1, Q13424; [1]): 3.64
pKd (SNTB1, Q13884; [1]): 3.71
pKd (TJP3_3, O95049; [1]): below the threshold
pKd (TX1BP3, O14907; [1]): below the threshold

SRSRRRETAL [HPV33-E6, P06427]
pKd (ARHGEF12, Q9NZN5-2; [2]): 4.78
pKd (DFNB31_2, Q9P202; [2]): 3.55
pKd (DLG4_1, P78352; [2]): 4.57
pKd (DLG4_3, P78352; [2]): 5.32
pKd (FRMPD1, Q5SYB0; [2]): below the threshold
pKd (GIPC2, Q8TF65; [2]): below the threshold
pKd (GRID2IP_1, A4D2P6; [2]): below the threshold
pKd (GRID2IP_2, A4D2P6; [2]): 4.18
pKd (GRIP1_7, Q9Y3R0; [2]): below the threshold
pKd (GRIP2_5, Q9C0E4; [2]): below the threshold
pKd (GRIP2_6, Q9C0E4; [2]): below the threshold
pKd (GRIP2_7, Q9C0E4; [2]): 3.42
pKd (HTRA3, P83110; [2]): below the threshold
pKd (LDB3, O75112; [2]): below the threshold
pKd (LNX1_1, Q8TBB1; [2]): below the threshold
pKd (MAGI2_2, Q86UL8; [2]): 5.31
pKd (MAST2, Q6P0Q8; [2]): 5.37
pKd (MPP2, Q14168; [2]): below the threshold
pKd (MPP6, Q9NZW5; [2]): below the threshold
pKd (PDZRN3_1, Q9UPQ7; [2]): 5.93
pKd (SCRIB_1, Q14160; [2]): 5.66
pKd (SCRIB_2, Q14160; [2]): 4.61
pKd (SCRIB_3, Q14160; [2]): 5.3
pKd (SNTA1, Q13424; [2]): 4.66
pKd (SNTB1, Q13884; [2]): 5.05
pKd (TJP3_3, O95049; [2]): below the threshold
pKd (TX1BP3, O14907; [2]): 5.07

FVETQHQTQV [FAT3, Q8TDW7]
pKd (ARHGEF12, Q9NZN5-2; [2]): 3.88
pKd (DFNB31_2, Q9P202; [2]): below the threshold
pKd (DLG4_1, P78352; [2]): 4.36
pKd (DLG4_3, P78352; [2]): below the threshold
pKd (FRMPD1, Q5SYB0; [2]): below the threshold
pKd (GIPC2, Q8TF65; [2]): 3.66
pKd (GRID2IP_1, A4D2P6; [2]): below the threshold
pKd (GRID2IP_2, A4D2P6; [2]): 3.59
pKd (GRIP1_7, Q9Y3R0; [2]): below the threshold
pKd (GRIP2_5, Q9C0E4; [2]): below the threshold
pKd (GRIP2_6, Q9C0E4; [2]): below the threshold
pKd (GRIP2_7, Q9C0E4; [2]): 3.82
pKd (HTRA3, P83110; [2]): below the threshold
pKd (LDB3, O75112; [2]): below the threshold
pKd (LNX1_1, Q8TBB1; [2]): below the threshold
pKd (MAGI2_2, Q86UL8; [2]): 4.02
pKd (MAST2, Q6P0Q8; [2]): 5.39
pKd (MPP2, Q14168; [2]): below the threshold
pKd (MPP6, Q9NZW5; [2]): below the threshold
pKd (PDZRN3_1, Q9UPQ7; [2]): 3.53
pKd (SCRIB_1, Q14160; [2]): below the threshold
pKd (SCRIB_2, Q14160; [2]): 4.15
pKd (SCRIB_3, Q14160; [2]): 4.02
pKd (SNTA1, Q13424; [2]): 4.09
pKd (SNTB1, Q13884; [2]): 4.19
pKd (TJP3_3, O95049; [2]): below the threshold
pKd (TX1BP3, O14907; [2]): 4

SGGKRKETLV [NET1, Q7Z628]
pKd (ARHGEF12, Q9NZN5-2; [2]): 3.74
pKd (DFNB31_2, Q9P202; [2]): below the threshold
pKd (DLG4_1, P78352; [2]): 5.21
pKd (DLG4_3, P78352; [2]): 4.92
pKd (FRMPD1, Q5SYB0; [2]): below the threshold
pKd (GIPC2, Q8TF65; [2]): below the threshold
pKd (GRID2IP_1, A4D2P6; [2]): below the threshold
pKd (GRID2IP_2, A4D2P6; [2]): 3.56
pKd (GRIP1_7, Q9Y3R0; [2]): below the threshold
pKd (GRIP2_5, Q9C0E4; [2]): below the threshold
pKd (GRIP2_6, Q9C0E4; [2]): below the threshold
pKd (GRIP2_7, Q9C0E4; [2]): below the threshold
pKd (HTRA3, P83110; [2]): below the threshold
pKd (LDB3, O75112; [2]): below the threshold
pKd (LNX1_1, Q8TBB1; [2]): below the threshold
pKd (MAGI2_2, Q86UL8; [2]): 5.87
pKd (MAST2, Q6P0Q8; [2]): 4.49
pKd (MPP2, Q14168; [2]): below the threshold
pKd (MPP6, Q9NZW5; [2]): below the threshold
pKd (PDZRN3_1, Q9UPQ7; [2]): 4.67
pKd (SCRIB_1, Q14160; [2]): 4
pKd (SCRIB_2, Q14160; [2]): 3.54
pKd (SCRIB_3, Q14160; [2]): 4.31
pKd (SNTA1, Q13424; [2]): 4.25
pKd (SNTB1, Q13884; [2]): 4.56
pKd (TJP3_3, O95049; [2]): below the threshold
pKd (TX1BP3, O14907; [2]): 4.44

SAPATLSSRA [PDLIM2, Q96JY6]
pKd (ARHGEF12, Q9NZN5-2; [1]): below the threshold
pKd (DFNB31_2, Q9P202; [1]): below the threshold
pKd (DLG4_1, P78352; [1]): below the threshold
pKd (DLG4_3, P78352; [1]): below the threshold
pKd (FRMPD1, Q5SYB0; [1]): below the threshold
pKd (GIPC2, Q8TF65; [1]): below the threshold
pKd (GRID2IP_1, A4D2P6; [1]): below the threshold
pKd (GRID2IP_2, A4D2P6; [1]): below the threshold
pKd (GRIP1_7, Q9Y3R0; [1]): below the threshold
pKd (GRIP2_5, Q9C0E4; [1]): below the threshold
pKd (GRIP2_6, Q9C0E4; [1]): below the threshold
pKd (GRIP2_7, Q9C0E4; [1]): below the threshold
pKd (HTRA3, P83110; [1]): below the threshold
pKd (LDB3, O75112; [1]): below the threshold
pKd (LNX1_1, Q8TBB1; [1]): 3.67
pKd (MAGI2_2, Q86UL8; [1]): below the threshold
pKd (MAST2, Q6P0Q8; [1]): below the threshold
pKd (MPP2, Q14168; [1]): below the threshold
pKd (MPP6, Q9NZW5; [1]): below the threshold
pKd (PDZRN3_1, Q9UPQ7; [1]): below the threshold
pKd (SCRIB_1, Q14160; [1]): below the threshold
pKd (SCRIB_2, Q14160; [1]): below the threshold
pKd (SCRIB_3, Q14160; [1]): below the threshold
pKd (SNTA1, Q13424; [1]): below the threshold
pKd (SNTB1, Q13884; [1]): below the threshold
pKd (TJP3_3, O95049; [1]): below the threshold
pKd (TX1BP3, O14907; [1]): below the threshold

Reference: paper PMC9482650, “Quantitative fragmentomics allow affinity mapping of interactomes” (Nature Communications, 2022)
